Assay results: patent US20040043959A1, “Combination therapies for treating methylthioadenosine phosphorylase deficient cells” (priority 2002, published 2004)

Experiments:
Experiment in all cases: MTAP substrate assay, coupled spectrophotometric (adenine, xanthine oxidase)
Assay type in all cases: biochemical, human
Conditions in all cases: other: substrate of MTAP, 37° C.
[1] = substrate: Nc1ncnc2c1ncn2[C@@H]1O[C@H](CNCCc2ccccn2)[C@@H](O)[C@H]1O
Method: (§1) An enzymatic assay to determine the activity of MTAP against a given substrate was performed. Human MTAP containing an N-terminal six-histidine tag was expressed in E. coli BL21 DE3 cells. The protein was purified to homogeneity by Ni2+ affinity chromatography. Enzymatic activity was measured using a coupled spectrophotometric assay designed to monitor the reaction product adenine (Savarese, T. M., Crabtree, G. W., and Parks, R. E. Jr., (1980) Biochem. Pharmacol. 30, 189-199). Various concentrations of the indicated 5′-deoxymethylthio adenosine (MTA) or substrate were incubated in assay buffer (40 mM potassium phosphate buffer, 1 mM, and DTT 0.8 units/ml xanthine oxidase coupling enzyme) for 5 minutes at 37° C. The reaction was initiated by the addition of MTAP. The exact concentration of enzyme used varied for each substrate tested and ranged from 2 nM to 500 nM. Activity as a function of enzyme concentration was determined for each substrate tested to ensure that the appropriate enzyme concentration was used. Activity was detected by continuous monitoring of absorbance at 305 nm for 10 minutes (ΔE=15,500 M^−1).
(§2) Library compounds (10 and 50 uM) were tested using the assay described above with 2 nM MTAP enzyme. The resultant initial velocities are reported as a percentage of the initial velocity observed when MTA is the substrate. MTA controls, 10 and 50 uM concentrations, were run on each plate alongside the library compounds.

[2] = substrate: Nc1ncnc2c1ncn2[C@@H]1O[C@H](CSc2ccccn2)[C@@H](O)[C@H]1O
Method: as §1, §2

[3] = substrate: Nc1ncnc2c1ncn2[C@@H]1O[C@H](CSc2ccncc2)[C@@H](O)[C@H]1O
Method: as §1, §2

[4] = substrate: Cc1ccccc1CSC[C@H]1O[C@@H](n2cnc3c(N)ncnc32)[C@H](O)[C@@H]1O
Method: as §1, §2

[5] = substrate: Nc1ncnc2c1ncn2[C@@H]1O[C@H](CSc2ccccc2)[C@@H](O)[C@H]1O
Method: as §1, §2

[6] = substrate: CC(C)(C)SC[C@H]1O[C@@H](n2cnc3c(N)ncnc32)[C@H](O)[C@@H]1O
Method: as §1, §2

[7] = substrate: CCOC(=O)CC[C@H]1O[C@@H](n2cnc3c(N)ncnc32)[C@H](O)[C@@H]1O
Method: as §1, §2

[8] = substrate: Nc1ncnc2c1ncn2[C@@H]1O[C@H](CSCCc2ccccc2)[C@@H](O)[C@H]1O
Method: as §1, §2

[9] = substrate: Nc1ncnc2c1ncn2[C@@H]1O[C@H](CSCc2ccc(F)cc2)[C@@H](O)[C@H]1O
Method: as §1, §2

[10] = substrate: CCN(C)C(=O)[C@H]1O[C@@H](n2cnc3c(N)ncnc32)[C@H](O)[C@@H]1O
Method: as §1, §2

[11] = substrate: Nc1ncnc2c1ncn2[C@@H]1O[C@H](CNC2CCCC2)[C@@H](O)[C@H]1O
Method: as §1, §2

[12] = substrate: Nc1ncnc2c1ncn2[C@@H]1O[C@H](CSCCCc2ccccc2)[C@@H](O)[C@H]1O
Method: as §1, §2

[13] = substrate: Nc1ncnc2c1ncn2[C@@H]1O[C@H](CSCCO)[C@@H](O)[C@H]1O
Method: as §1, §2

[14] = substrate: Nc1ncnc2c1ncn2[C@@H]1O[C@H](CSCc2ccco2)[C@@H](O)[C@H]1O
Method: as §1, §2

[15] = substrate: NCCSC[C@H]1O[C@@H](n2cnc3c(N)ncnc32)[C@H](O)[C@@H]1O
Method: as §1, §2

[16] = substrate: COc1cccc(SC[C@H]2O[C@@H](n3cnc4c(N)ncnc43)[C@H](O)[C@@H]2O)c1
Method: as §1, §2

B1: Human MTAP (Homo sapiens) (protein)
chain: MASGTTTTAVKIGIIGGTGLDDPEILEGRTEKYVDTPFGKPSDALILGKIKNVDCVLLARHGRQHTIMPSKVNYQANIWALKEEGCTHVIVTTACGSLREEIQPGDIVIIDQFIDRTTMRPQSFYDGSHSCARGVCHIPMAEPFCPKTREVLIETAKKLGLRCHSKGTMVTIEGPRFSSRAESFMFRTWGADVINMTTVPEVVLAKEAGICYASIAMATDYDCWKEHEEAVSVDRVLKTLKENANKAKSLLLTTIPQIGSTEWSETLHNLKNMAQFSVLLPRH
notes: six-histidine tag (His6) (N); made in house; host or cells: E. coli BL21 DE3
B1 was tested, and the Km [1] was 1300 µM, the kcat [1] was 0.018 s⁻¹ and the Km [2] was 5.2 µM. For the same protein, the kcat [2] was 3.44 s⁻¹, the Km [3] was 0.88 µM and the kcat [3] was 0.23 s⁻¹. The Km [4] was 10 µM, the kcat [4] was 0.79 s⁻¹ and the Km [5] was 3 µM. The kcat [5] was 1.5 s⁻¹, the Km [6] was 17 µM and the kcat [6] was 0.85 s⁻¹. The Km [7] was 5.95 µM, the kcat [7] was 4.12 s⁻¹ and the Km [8] was 5 µM. The kcat [8] was 2.14 s⁻¹, the Km [9] was 5.4 µM and the kcat [9] was 2.24 s⁻¹. For the same protein, the Km [10] was 300 µM, the kcat [10] was 0.8 s⁻¹ and the Km [11] was 600 µM. For the same protein, the kcat [11] was 0.3 s⁻¹, the Km [12] was 2.8 µM and the kcat [12] was 2.16 s⁻¹. For the same protein, the Km [13] was 25 µM, the kcat [13] was 1.46 s⁻¹ and the Km [14] was 4.45 µM. The kcat [14] was 6.15 s⁻¹, the Km [15] was 390 µM and the kcat [15] was 0.141 s⁻¹. The Km [16] was 2.2 µM and the kcat [16] was 1.4 s⁻¹.
